Measurements taken from patent US9556424B2, “1-deoxy-D-xylulose 5-phosphate synthase alleles responsible for enhanced terpene biosynthesis” (GENOPLANTE-VALOR, priority 2010, dated 2017).
Positions count from the first letter of the chain named.

Tests used:
[1] = tested on: tobacco leaves; experiment: Agrobacterium-mediated transient co-expression of GES and DXS alleles in tobacco leaves, geraniol by GC-MS; assay type: in vivo, Nicotiana benthamiana; conditions: 96 h after infiltration; for increase in geraniol accumulation in tobacco leaves: co-expression with GES, in average
Description: In order to characterize DXS alleles activity, the inventors used Agrobacterium-mediated transient transformation of tobacco (Nicotiana benthamiana), which allows a fast and efficient gene expression in tobacco leaves (Batoko et al., 2000). This approach was already used successfully to characterize genes involved in grapevine secondary metabolism (Schmidlin et al., 2008; Hugueney et al., 2009). MoDXS1, MoDXS2 and GwDXS2 alleles were expressed in tobacco leaves, together with a cDNA encoding the enzyme geraniol synthase (GES) from basilicum (Ocimum basalicum) (Iijima et al., 2004). […] Thus, GC-M5 analyses of tobacco leaves co-expressing GES and DXS alleles allowed an accurate comparison of DXS alleles activity in planta.
Grapevine DXS cDNAs were amplified by PCR using the upstream primer 5′-[…] TACGCTCTCATTTCC-3′ (SEQ ID No11) and the downstream primer 5′-[…]-3′ (SEQ ID No12), and cloned into the pDONR207 Gateway compatible vector (Invitrogen, Carlsbad, Calif.) using Gateway BP clonase (Invitrogen) according to the manufacturer's instructions. DXS cDNAs were sequenced to verify that no mutation had been introduced. For Agrobacterium-mediated transient expression, DXS cDNAs were subsequently transferred into the GATEWAY binary vector pMDC32 (Curtis and Grossniklaus., 2003). Geraniol synthase cDNA from basilicum (Ocimum basilicum) (Iijima et al., 2004) was cloned into the GATEWAY binary vector pMDC83 (Curtis and Grossniklaus., 2003) and expressed as a GFP fusion protein. All constructs were introduced into Agrobacterium tumefaciens strain C58 (pMP90) by electroporation. Nicotiana benthamiana leaves were infiltrated with A. tumefaciens cultures (OD600 0.5) according to Voinnet et al. (2003). Leaf sectors were […] for terpene content 96 h after Agrobacterium infiltration.
For each sampling point, three replicates of terpenol analysis were performed. After weighing, tobacco leaf sectors (about 1 g) were ground under liquid nitrogen and then suspended in 2 mL of ultra-pure water. […]

[2] = tested on: grape berries; experiment: Terpenol content in grape berry skins as a function of DXS alleles (MO and GW progeny); assay type: in vivo, Vitis vinifera; conditions: by DXS genotype in MO and GW progeny, pool of 5 major terpenols
Experimental: Isolation of Free and Bound Monoterpenols by Solid Phase Extraction (SPE)
For each sampling point, three replicates of terpenol analysis were performed. For each replicate, at least 25 berries were used. Seeds were removed and skins separated from mesocarps. After weighing, skins were ground under liquid nitrogen and then suspended in 40 mL of water after addition of 40 mg of sodium sulphite. The supernatant obtained after a 15-min centrifugation (11400 g at 4° C.) was passed through a glass fibre pre-filter and a glass filter. Twenty microliters of a 1 g/L 4-nonanol solution was added as external standard to allow the quantification of the main terpenols. Extraction of terpenols was adapted from Mateo et al. (1997), ethanol being used instead of methanol. The filtrate was passed through a 1 g phase C18 silica-bonded non-polar SPE column (BOND ELUT JR.), previously washed with 5 mL of methanol and 15 mL of ultra-pure water, at a rate of approximately one drop/s. The sample was then divided in two equal subsamples, one for the analysis of free and glycosidically bound monoterpenols and one for the analysis of free terpenols. Total fractions of free and bound monoterpenols were eluted with 4 mL of absolute ethanol. […]

B1: MoDXS1: typical (wild type) DXS allele shared by Vitis vinifera cv Muscat Ottonel and Gewurztraminer (protein)
chain: MALCTLSFPAHFSQAAASNPQRLTPQCSHLFLGVDLQCQSQQRSKARKRPNGVCASLSDREEYHSQRPPTPLLDTINYPIHMKNLSVKELKQLADELRSDVVFNVSKTGGHLGSSLGVVELTVALHYVFNAPQDRILWDVGHQSYPHKILTGRRDQMHTMRQTDGLAGFTKRSESEYDCFGTGHSSTTISAGLGMAVGRDLKGKNNNVIAVIGDGAMTAGQAYEAMNNAGYLDSDMIVILNDNKQVSLPTATLDGPIPPVGALSSALSRLQSNRPLRELREVAKGVTKQIGGPMHELAAKVDEYARGMISGSGSTLFEELGLYYIGPVDGHNIDDLVAILKEVKSTKTTGPVLIHVVTEKGRGYPYAEKAADKYHGVTKFDPATGKQFKSSAPTQSYTTYFAEALIAEAEVDKDIVAIHAAMGGGTGLNLFHRRFPTRCFDVGIAEQHAVTFAAGLACEGIKPFCAIYSSFMQRAYDQVVHDVDLQKLPVKFAMDRAGLVGADGPTHCGAFDVAFMACLPNMVVMAPADEAELFHMVATAAAIDDRPSCFRYPRGNGVGVELPPGNKGIPIEVGRGRILIEGERVALLGYGTAVQSCLVASSLLEQHGLRITVADARFCKPLDHALIRSLAKSHEVLITVEEGSIGGFGSHVAQFLALNGLLDGTTKWSPMVLPDRYIDHGAPADQLAMAGLTPSHIAATVFNILGQTREALEIML
modifications: Vitis Vinifera
notes: typical (wild type) DXS allele shared by Vitis vinifera cv Muscat Ottonel and Gewurztraminer
[1]; co-expression with GES in tobacco leaves, versus GES alone
  geraniol biosynthesis: substantial increases
[2]
  terpenol content in grape berries: extremely low levels of terpenols

B2: MoDXS2: DXS allele of Vitis vinifera cv Muscat Ottonel with K284→N mutation (protein)
chain: B1 chain with K284N, V560I
modifications: Vitis Vinifera
notes: DXS allele of Vitis vinifera cv Muscat Ottonel with K284→N mutation
[1]
  increase in geraniol accumulation in tobacco leaves: three time increase

B3: GwDXS2: DXS allele of Vitis vinifera cv Gewurztraminer with R306→C mutation (protein)
chain: B1 chain with R306C
modifications: Vitis Vinifera
notes: DXS allele of Vitis vinifera cv Gewurztraminer with R306→C mutation
[1]
  increase in geraniol accumulation in tobacco leaves: three time increase
